Experiments:
mesenchymal stem cells [1] = assay: Mesenchymal stem cell culture with growth factors with or without nicotinamide, cell counts; type: cell-based; settings: growth factor 10 or 50 ng/ml with 5 mM NAM; three or four passages
Procedure: Isolation: Bone marrow derived and adipose tissue derived mesenchymal cells were isolated based on their plastic adherence potential in expansion medium containing: High glucose DMEM and 10% Fetal Bovine Serum (FBS, Hyclone, Logan, Utah, USA) supplemented with 0.05 mg/ml Gentamicin (Sigma) and 2 mM L-glutamine (Biological Industries, Israel). Cells were allowed to adhere for 3-4 days and non-adherent cells were washed out with medium changes. The medium was further exchanged with fresh medium every 3-4 days.
Maintenance and expansion: Once adherent cells reached approximately 80-90% confluency, they were detached with 0.25% trypsin-EDTA (Sigma), washed twice in DMEM and 10% Fetal Bovine Serum, with centrifugation, 400 g, 5 minutes, and re-plated at a 1:2 to 1:1000 dilution under the same culture conditions.
Measurement of number of cells in culture: Cell number was measured using Cedex Automated Cell Counter (Innovatis). The cells were diluted 1:2 in Trypan Blue (Sigma) and cell number was measured automatically under microscope.
Treatment of mesenchymal cultures with nicotinamide: Mesenchymal cultures were initiated as described above, and supplemented with nicotinamide 1-15 mM alone, or in combination with growth factors or growth factors alone, incubated at 37° C. in a humidified atmosphere of 5% CO2 in air. At each passage and at each medium exchange, the cultures were supplemented with mesenchymal medium, nicotinamide and growth factors.
Mesenchymal stem cells were selected and cultured in the presence of particular growth factors (basic fibroblast growth factor—bFGF, heparin binding epidermal growth factor—HB-EGF, fibroblast growth factor 4—FGF-4 and platelet derived growth factor, homodimer, subunit B, PDGF-BB) in the presence and absence of nicotinamide for three or four passages and the number and size of the cells was calculated.
Two concentrations (10 and 50 ng/ml) of each one of the following factors were examined.
In addition, the influence of the combination: 5 mM NAM+50 ng/ml FGF4+50 ng/ml PDGF-BB was examined in comparison to an individual supplement.

MSCs = settings: Tamama et al. 2010; cited from earlier work
mesenchymal stem cells [2] = assay: Percent of MSC (CD105+CD45−) analyzed by FACS; type: cell-based; settings: FGF4 or PDGF-BB 50 ng/ml, NAM 5 mM
Procedure: Four different batches of MSC cultures were treated with FGF4 (50 ng/ml), NAM (5 mM) or a combination of FGF4+NAM. Percent of MSC (CD105+CD45−) was analyzed by FACS. FIGS. 7A-D are graphs illustrating that MSC cultures treated with PDGF-BB or a combination of PDGF-BB+NAM comprise a higher fraction of cells other than MSCs that contaminates the cultures as compared to MSC cultured in the absence of PDGF-BB. Four different batches of MSC cultures were treated with PDGF-BB (50 ng/ml), NAM (5 mM) or a combination of PDGF-BB+NAM. Percent of MSC (CD105+CD45−) was analyzed by FACS. Surface antigen analysis: At different time points the cells were detached with 0.25% trypsin-EDTA. […] The cells were then washed in the above buffer and analyzed using a FACScalibur® flow cytometer (Becton Dickinson). […] Emission of 10000 cells was measured using logarithmic amplification, and analyzed using the CellQuest software (Becton Dickinson). Cells stained with FITC- and PE-conjugated isotype control antibodies were used to determine background fluorescence.

MSC = settings: Stewart et al. 2010; cited from earlier work

| Molecule | effect on the ability of nicotinamide to increase proliferation of mesenchymal stem cells (mesenchymal stem cells [1]) | also measured |
| --- | --- | --- |
| basic FGF: basic fibroblast growth factor (bFGF, FGF2) | negative effect |  |
| EGF: Epidermal growth factor |  | increase in number of colony-forming units (MSCs): 25% |
| PDGF-BB: platelet derived growth factor, homodimer, subunit B (protein, UniProt P01127 82-190, looked up) Platelet-derived growth …: SLGSLTIAEPAMIAECKTRTEVFEISRRLIDRTNANFLVWPPCVEVQRCSGCCNNRNVQCRPTQVQLRPVQVRKIEIVRKKPIFKKATVTLEDHLACKCETVAAARPVT | inconsistent effect | Percent of MSC (CD105+CD45−) in culture (mesenchymal stem cells [2]): contaminated with a higher fraction of cells other than MSCs |
| BMP-3: member of the transforming growth factor beta family, known to enhance bone differentiation (protein, UniProt P12645 363-472, looked up) Bone morphogenetic protein 3: QWIEPRNCARRYLKVDFADIGWSEWIISPKSFDAYYCSGACQFPMPKSLKPSNHATIQSIVRAVGVVPGIPEPCCVPEKMSSLSILFFDENKNVVLKVYPNMTVESCACR |  | increase in MSC proliferation (MSC): threefold |
| HB-EGF: heparin-binding EGF-like growth factor (protein, UniProt Q99075 63-148, looked up) Heparin-binding EGF-like …: DLQEADLDLLRVTLSSKPQALATPNKEEHGKRKKKGKGLGKKRDPCLRKYKDFCIHGECKYVKELRAPSCICHPGYHGERCHGLSL | negative effect |  |
